Consider six molecules from article PMC12079668, “Nanobodies against Cavin1 reveal structural flexibility and regulated interactions of its N-terminal coiled-coil domain” (Journal of Cell Science, 2025).

The target of series [1] is T1, mouse Cavin1 HR1 H102I/T105I (HT/II) mutant (Mus musculus, UniProt O54724, H102I | T105I).
T1 construct: mouse Cavin1 (PTRF), HR1 domain with H102I and T105I; also called mC1 HR1 HT/II mutant; mC1-HR1(HT/II); source: E. coli BL21 CodonPlus (DE3), purified (glutathione Sepharose, GST removed on-column with thrombin, SEC); not shown: GST, N-terminal, cleaved
The series is described as follows: ITC; 200 μM NbA12 or NbB7 titrated into 6.25 μM trimeric mC1-HR1 HT/II or TS/DD mutant; GF150 buffer, 25°C; single-site fit. The note with it: both partners purified. (In general: In ITC the heat of successive injections is recorded.)

Series [2] addresses T2, mouse Cavin1 HR1 T105D/S106D (TS/DD) mutant (Mus musculus, UniProt O54724, T105D | S106D).
T2 construct: mouse Cavin1 (PTRF), HR1 domain with T105D and S106D (phosphomimetic); also called mC1 HR1 TS/DD mutant; mC1-HR1(TS/DD); source: E. coli BL21 CodonPlus (DE3), purified (glutathione Sepharose, GST removed on-column with thrombin, SEC); not shown: GST, N-terminal, cleaved
Described as above. The following applies: both partners purified.

In series [3] the target is T3, zebrafish Cavin4b HR1 domain (residues 12-133) (Danio rerio (Zebrafish) (Brachydanio …, UniProt Q5PQY9)).
T3 construct: zebrafish Cavin4b, HR1 domain, residues 12-133 (codon-optimised construct); also called zC4b-HR1; zC4b HR1; source: E. coli BL21 CodonPlus (DE3), purified (TALON, SEC)
The series is described as follows: ITC; NbA12 at 500 μM or NbB7 at 400 μM titrated into 30 μM (monomer) cavin HR1 domain or His-MBP full-length mC1; GF150 buffer (20 mM HEPES pH 7.4, 150 mM NaCl), 25°C; fitted with a 1:1 binding ratio. The following applies: both partners purified.

For series [4], the target named is T4, zebrafish Cavin4a HR1 domain (residues 16-123) (Danio rerio, UniProt A1L260).
T4 construct: zebrafish Cavin4a, HR1 domain, residues 16-123 (codon-optimised construct); also called zC4a-HR1; zC4a HR1; source: E. coli BL21 CodonPlus (DE3), purified (TALON, SEC)
The description is as above. The following applies: both partners purified.

The target of series [5] is T5, mouse Cavin1 HR1 domain H102I/T105I (HT/II) mutant (Mus musculus, UniProt O54724, H102I | T105I).
T5 construct: mouse Cavin1 (PTRF), HR1 domain, residues 45-155, H102I/T105I; pGEX-4T2, GST removed with thrombin; also called mC1-HR1(HT/II); source: E. coli BL21 CodonPlus (DE3), purified (glutathione Sepharose, thrombin on-column, SEC); not shown: GST, N-terminal, cleaved
The series is described as follows: ITC; 200 μM NbA12 or NbB7 titrated into 6.25 μM trimeric mC1-HR1 HT/II or TS/DD mutant; GF150 buffer, 25°C; single-site fit. The following applies: both partners purified.

Series [6] deals with T6, mouse Cavin1 HR1 domain T105D/S106D (TS/DD) mutant (Mus musculus (Mouse)., UniProt O54724, T105D | S106D).
T6 construct: mouse Cavin1 (PTRF), HR1 domain, residues 45-155, T105D/S106D (phosphomimetic); pGEX-4T2, GST removed with thrombin; also called mC1-HR1(TS/DD); source: E. coli BL21 CodonPlus (DE3), purified (glutathione Sepharose, thrombin on-column, SEC); not shown: GST, N-terminal, cleaved
The series is described as above. The note with it: both partners purified.

For series [7], the target named is T7, GST-tagged mouse Cavin1 HR1 domain (Mus musculus (Mouse)., UniProt O54724).
T7 construct: mouse Cavin1 (PTRF), HR1 coiled-coil domain, residues 45-155; pGEX-4T2 with thrombin site; GST kept for the pull-down and the liposome pelleting assay; also called GST–mC1-HR1; GST-tagged mC1-HR1; source: E. coli BL21 CodonPlus (DE3), purified (glutathione Sepharose); not shown: GST, N-terminal, kept
The series is described as follows: pull-down; GST–mC1-HR1 (1 nmol) as bait on glutathione Sepharose, His-tagged nanobodies (2 nmol) as prey; 20 mM HEPES, 150 mM NaCl, 1 mM DTT, 0.1% IGEPAL, pH 7.4; 4°C; SDS-PAGE. The note with it: both partners purified.

The target of series [8] is T8, zebrafish Cavin4a HR1 domain (Danio rerio, UniProt A1L260).
T8 construct: zebrafish Cavin4a, HR1 domain; Codon-optimised construct; also called zC4a-HR1; source: E. coli BL21 CodonPlus (DE3), purified (TALON, SEC)
The series is described as follows: ITC; NbA12 at 500 μM or NbB7 at 400 μM titrated into 30 μM (monomer) HR1 domain of cavins or His-MBP full-length mC1; GF150 buffer (20 mM HEPES pH 7.4, 150 mM NaCl), 25°C; single-site fit. The following applies: both partners purified.

The target of series [9] is T9, zebrafish Cavin4b HR1 domain (Danio rerio, UniProt A0A8M1N3J3).
T9 construct: zebrafish Cavin4b, HR1 domain; Codon-optimised construct; also called zC4b-HR1; source: E. coli BL21 CodonPlus (DE3), purified (TALON, SEC)
The series is described as above. The note with it: both partners purified.

Series [10] has as its target T10, mouse Cavin1 HR1 domain (residues 45–155), His-Ub-tagged (Mus musculus (Mouse)., UniProt O54724).
T10 construct: mouse Cavin1 (PTRF), HR1 coiled-coil domain, residues 45-155; pHUE vector; the methods say the His-Ub proteins were used for ITC; removal of the tag is not described; also called mC1-HR1; wild-type HR1 domain; source: E. coli BL21(DE3)pLysS, purified (TALON, SEC)
The description is as above. The following applies: both partners purified.

Series [11] deals with T11, N-terminal fragment of mouse Cavin1 HR1 domain (residues 45–103) (Mus musculus (Mouse)., UniProt O54724).
T11 construct: mouse Cavin1 (PTRF), N-terminal part of the HR1 domain, residues 45-103; also called mC1-HR1(45–103); shorter fragment of mC1-HR1; source: E. coli BL21(DE3)pLysS, purified (TALON, SEC)
The description is as above. The following applies: both partners purified.

The target of series [12] is T12, full-length mouse Cavin1, His-MBP-tagged (Mus musculus (Mouse)., UniProt O54724).
T12 construct: mouse Cavin1 (PTRF), full length; also called His-MBP full-length mC1; full-length MBP-tagged mC1; source: E. coli BL21(DE3)pLysS, purified (TALON, SEC)
Described as above. The following applies: both partners purified.

Series [13] concerns the molecule itself. Description: crystal structure; complex formed with 1.5-fold molar excess of NbB7 and purified by SEC; hanging-drop vapour diffusion, 20°C; X-ray. On the technique in general: In gel filtration, larger molecules generally elute earlier.
In series [14] the target is T13, mouse Cavin1 HR1 Q76A (residues 45-155) (Mus musculus, UniProt O54724, Q76A).
T13 construct: mouse Cavin1 (PTRF), HR1 domain, residues 45-155, Q76A; also called mC1 HR1 Q76A; source: E. coli BL21(DE3)pLysS, purified (TALON, SEC)
The series is described as follows: ITC; NbA12 at 500 μM or NbB7 at 400 μM titrated into 30 μM (monomer) cavin HR1 domain or His-MBP full-length mC1; GF150 buffer (20 mM HEPES pH 7.4, 150 mM NaCl), 25°C; fitted with a 1:1 binding ratio. The following applies: both partners purified.

The target in a further series is T14, endogenous Cavin1 (HeLa) (Homo sapiens (Human)., UniProt Q6NZI2).
T14 construct: Cavin1 (PTRF), endogenous in human HeLa cells; also called PTRF; source: endogenous, HeLa lysate
The series is described as follows: co-IP; lysates of HeLa cells expressing NbA12–GFP or NbB7–GFP, GFP-binding nanobody on NHS-activated Sepharose; 0.5% Triton X-100; endogenous Cavin1 and CAV1 detected by western blot. The note with it: partners not purified.

The target of a further series is T15, endogenous CAV1 (HeLa) (Homo sapiens (Human)., UniProt Q03135).
T15 construct: CAV1 (caveolin 1), endogenous in human HeLa cells; also called caveolin 1; source: endogenous, HeLa lysate
The description is as above. The following applies: partners not purified.

T3 sequence (Q5PQY9 entry or part of it): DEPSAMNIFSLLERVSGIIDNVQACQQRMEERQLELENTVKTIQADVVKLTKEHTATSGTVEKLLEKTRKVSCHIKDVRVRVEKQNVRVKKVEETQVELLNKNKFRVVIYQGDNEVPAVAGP
T4 sequence (A1L260 16-123): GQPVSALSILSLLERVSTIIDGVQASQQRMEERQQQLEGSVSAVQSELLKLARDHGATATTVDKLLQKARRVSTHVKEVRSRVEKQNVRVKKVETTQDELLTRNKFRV
T8 sequence (A1L260 whole entry, looked up, the tested form may be a part): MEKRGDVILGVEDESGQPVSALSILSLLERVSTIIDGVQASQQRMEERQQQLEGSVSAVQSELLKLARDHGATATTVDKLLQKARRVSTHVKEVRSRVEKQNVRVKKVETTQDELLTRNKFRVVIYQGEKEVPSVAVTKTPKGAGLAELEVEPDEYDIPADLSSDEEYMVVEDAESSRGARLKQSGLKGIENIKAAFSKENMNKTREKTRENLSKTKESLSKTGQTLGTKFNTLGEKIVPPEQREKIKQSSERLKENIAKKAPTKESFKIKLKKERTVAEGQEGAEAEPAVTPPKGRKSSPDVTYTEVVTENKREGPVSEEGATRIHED
T12 sequence (O54724 whole entry): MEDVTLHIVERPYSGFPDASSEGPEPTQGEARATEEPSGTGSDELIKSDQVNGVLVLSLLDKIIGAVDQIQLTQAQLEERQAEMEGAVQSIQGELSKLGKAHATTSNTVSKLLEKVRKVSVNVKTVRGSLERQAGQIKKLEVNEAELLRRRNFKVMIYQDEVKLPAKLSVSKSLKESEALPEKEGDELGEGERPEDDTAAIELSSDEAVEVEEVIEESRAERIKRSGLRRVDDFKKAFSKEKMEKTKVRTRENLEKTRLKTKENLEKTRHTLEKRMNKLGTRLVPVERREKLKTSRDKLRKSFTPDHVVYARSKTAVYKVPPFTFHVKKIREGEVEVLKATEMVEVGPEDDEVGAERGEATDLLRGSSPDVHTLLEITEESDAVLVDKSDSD
T15 sequence (Q03135 whole entry): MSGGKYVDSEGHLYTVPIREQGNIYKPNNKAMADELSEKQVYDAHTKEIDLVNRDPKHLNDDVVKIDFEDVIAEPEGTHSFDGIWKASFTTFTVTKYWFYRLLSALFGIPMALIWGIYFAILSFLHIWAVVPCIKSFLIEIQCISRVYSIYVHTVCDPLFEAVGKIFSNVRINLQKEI
T14 sequence (Q6NZI2 whole entry): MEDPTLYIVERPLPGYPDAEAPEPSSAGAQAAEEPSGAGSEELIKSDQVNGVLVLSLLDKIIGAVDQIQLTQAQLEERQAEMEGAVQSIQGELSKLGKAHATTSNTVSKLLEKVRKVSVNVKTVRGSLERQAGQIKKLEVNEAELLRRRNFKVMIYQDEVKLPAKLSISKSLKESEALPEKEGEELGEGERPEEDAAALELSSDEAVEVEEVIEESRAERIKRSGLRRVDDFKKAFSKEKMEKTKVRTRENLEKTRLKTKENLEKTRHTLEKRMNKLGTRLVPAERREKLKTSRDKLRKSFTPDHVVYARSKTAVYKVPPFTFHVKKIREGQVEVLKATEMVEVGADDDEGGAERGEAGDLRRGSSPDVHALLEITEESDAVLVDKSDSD

B1: Nanobody NbA12 (VHH)
VHH: QVQLQESGGGLVQAGGSLRLSCAASGFTFDDYAIGWFRQAPGKEREGVSCITSSDGSTYYADSVKGRFTISSDNAKNTVYLQMNSLKPEDTAVYYCAAESWPPLCHYSGMDYWGKGTQVTVSS
notes: Selected by phage display from an alpaca immunised with mC1-HR1; source: E. coli WK6, periplasmic expression, purified (TALON, SEC)
In the case of B1, the Kd in series [1] came out at 3020 ± 1940 nM; in series [2] it was 2170 ± 20 nM. Moreover, the binding result in series [3] and in series [4] was “no binding” throughout.

B2: nanobody NbA12 (VHH)
VHH: QVQLQESGGGLVQAGGSLRLSCAASGFTFDDYAIGWFRQAPGKEREGVSCITSSDGSTYYADSVKGRFTISSDNAKNTVYLQMNSLKPEDTAVYYCAAESWPPLCHYSGMDYWGKGTQVTVSS
notes: alpaca nanobody raised against mC1-HR1; Cloned in pMES4 with a C-terminal 6x histidine tag; source: E. coli WK6, periplasmic expression, purified (TALON, SEC); not shown: His6, C-terminal, kept
As to B2, the Kd came to 3000 nM in series [5] and 2000 nM in series [6]. Also, the binding result in [7] was “binds”; in series [8], “no binding”; in series [9], “no binding”; in [10] it was “binds”; in series [11], “binds”; in [12], “binds”.

B3: mouse Cavin1 HR1 domain (residues 45–155) as crystallised with NbB7 (domain or fragment, UniProt O54724 45-155, looked up)
chain: LIKSDQVNGVLVLSLLDKIIGAVDQIQLTQAQLEERQAEMEGAVQSIQGELSKLGKAHATTSNTVSKLLEKVRKVSVNVKTVRGSLERQAGQIKKLEVNEAELLRRRNFKV
notes: mouse Cavin1 (PTRF), HR1 coiled-coil domain, residues 45-155 in the crystallised construct; residues 56-98 ordered; also called mC1-HR1; source: E. coli, purified (SEC)
For the molecule B3, the “stoichiometry N” value in [13] was 3.

B4: Nanobody NbB7 (VHH)
VHH: QVQLQESGGGLVQAGGSLRLSCAVSGIRVNVNAMYWYRQAPGKQRELVAIITTFGSTNYADSAKGRFTISRDNTKNTVYLQMDNLKPEDTAVYYCNAPQFTDRYWGQGTQVTVSS
notes: the same chain is in PDB 9EGN, 9EG6 and 9EIU; source: E. coli WK6, periplasmic expression, purified (TALON, SEC)
With B4, the results for the Kd in [1], in series [2] and in series [14] were 140 ± 40 nM, 67 ± 20 nM and 2890 ± 1010 nM, respectively. For the same molecule, the binding result in [3] was “no binding”.

B5: nanobody NbB7 (VHH)
VHH: QVQLQESGGGLVQAGGSLRLSCAVSGIRVNVNAMYWYRQAPGKQRELVAIITTFGSTNYADSAKGRFTISRDNTKNTVYLQMDNLKPEDTAVYYCNAPQFTDRYWGQGTQVTVSS
notes: also in the deposited structures PDB 9EGN, 9EG6, 9EIU; alpaca nanobody raised against mC1-HR1; Cloned in pMES4 with a C-terminal 6x histidine tag; source: E. coli WK6, periplasmic expression, purified (TALON, SEC); not shown: His6, C-terminal, kept
As to B5, the Kd in series [5] is 142 nM; in [6], 66.7 nM; in [10] it was 520 nM. In addition, the binding result in series [9] is listed as “no binding”.

B6: C-terminal GFP-tagged NbB7 (VHH)
VHH: QVQLQESGGGLVQAGGSLRLSCAVSGIRVNVNAMYWYRQAPGKQRELVAIITTFGSTNYADSAKGRFTISRDNTKNTVYLQMDNLKPEDTAVYYCNAPQFTDRYWGQGTQVTVSS
notes: as the VHH of m1; pEGFP-N1; also called NbB7–GFP; source: HeLa, transiently transfected, in lysate; not shown: GFP, C-terminal, kept
Consider B6, for which the binding result with endogenous Cavin1 (HeLa) and with endogenous CAV1 (HeLa) was “binds” in each case.

A word on the Kd: it is the equilibrium constant for the complex coming apart. By stoichiometry N is commonly meant a count of units in the complex or per binding partner.
